Reference: patent US8759300
One block for each substance: values may come before it.

What was measured:
[1] = molecular target: vascular endothelial growth factor A (VEGF-A) (human) (UniProt P15692); assay: method not restated in the sentence
[2] = molecular target: platelet-derived growth factor-BB (PDGF-BB) (human) (UniProt P01127); assay: method not restated in the sentence
Target sequence in this assay (P01127 82-190 limits assumed): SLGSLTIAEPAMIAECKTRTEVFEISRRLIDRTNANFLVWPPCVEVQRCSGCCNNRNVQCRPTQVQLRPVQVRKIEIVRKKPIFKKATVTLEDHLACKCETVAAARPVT

[3] = molecular target: transforming growth factor-β1 (TGF-β1) (human) (UniProt P01137); assay: method not restated in the sentence
Target sequence in this assay (P01137 279-390 limits assumed): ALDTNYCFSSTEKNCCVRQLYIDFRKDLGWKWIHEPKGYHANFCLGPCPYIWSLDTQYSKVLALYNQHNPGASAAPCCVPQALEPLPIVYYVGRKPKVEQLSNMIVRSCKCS

[4] = molecular target: transforming growth factor-β1 (TGF-β1) (human) (UniProt P01137); assay: equilibrium or kinetic binding, not said which
[5] = molecular target: platelet-derived growth factor-BB (PDGF-BB) (human) (UniProt P01127); assay: equilibrium binding
[6] = molecular target: platelet-derived growth factor-BB (PDGF-BB) (human) (UniProt P01127); assay: method not restated in the sentence (paragraph: plasmon resonance modulation)
Target sequence in this assay (P01127 82-190 limits assumed): as the sequence (P01127 82-190 limits assumed) above

[7] = molecular target: transforming growth factor-β1 (TGF-β1) (human) (UniProt P01137); assay: as above
Target sequence in this assay (P01137 279-390 limits assumed): as the sequence (P01137 279-390 limits assumed) above

[8] = molecular target: platelet-derived growth factor-BB (PDGF-BB) (human) (UniProt P01127); assay: surface plasmon resonance, kinetic
Target sequence in this assay (P01127 82-190 limits assumed): as the sequence (P01127 82-190 limits assumed) above

[9] = molecular target: transforming growth factor-β1 (TGF-β1) (human) (UniProt P01137); assay: equilibrium binding; equilibrium binding
Target sequence in this assay (P01137 279-390 limits assumed): as the sequence (P01137 279-390 limits assumed) above

[10] = molecular target: transforming growth factor-β1 (TGF-β1) (human) (UniProt P01137); assay: surface plasmon resonance, kinetic; kinetic, plasmon surface resonance
Target sequence in this assay (P01137 279-390 limits assumed): as above

[11] = molecular target: vascular endothelial growth factor A (VEGF-A) (human) (UniProt P15692); assay: plasmon resonance modulation; plasmon resonance
[12] = molecular target: platelet-derived growth factor-BB (PDGF-BB) (human) (UniProt P01127); assay: plasmon resonance modulation; plasmon resonance
Target sequence in this assay (P01127 82-190 limits assumed): as the sequence (P01127 82-190 limits assumed) above

[13] = molecular target: transforming growth factor-β1 (TGF-β1) (human) (UniProt P01137); assay: plasmon resonance modulation; plasmon resonance
Target sequence in this assay (P01137 279-390 limits assumed): as the sequence (P01137 279-390 limits assumed) above

[14] = molecular target: platelet-derived growth factor-BB (PDGF-BB) (human) (UniProt P01127); assay: equilibrium binding to FN adsorbed to a surface or coupled to agarose beads
[15] = molecular target: transforming growth factor-β1 (TGF-β1) (human) (UniProt P01137); assay: as above
[16] = molecular target: platelet-derived growth factor-BB (PDGF-BB) (human) (UniProt P01127); assay: radiolabeled GF binding to intact FN, non linear regression; radiolabeled GF, intact FN
[17] = molecular target: transforming growth factor-β1 (TGF-β1) (human) (UniProt P01137); assay: as above
[18] = molecular target: platelet-derived growth factor-BB (PDGF-BB) (human) (UniProt P01127); assay: surface plasmon resonance

Chain of IIICS, variably-spliced domain of fibronectin (P02751 other isoform, or with tags, fused parts or gaps limits assumed): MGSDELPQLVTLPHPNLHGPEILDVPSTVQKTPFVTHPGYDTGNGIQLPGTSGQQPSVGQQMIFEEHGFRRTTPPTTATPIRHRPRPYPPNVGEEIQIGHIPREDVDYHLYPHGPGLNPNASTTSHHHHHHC
Chain of FNIII12-V15 (HV), composite heparinII-binding and variably-spliced IIICS domains of fibronectin (P02751 other isoform, or with tags, fused parts or gaps limits assumed): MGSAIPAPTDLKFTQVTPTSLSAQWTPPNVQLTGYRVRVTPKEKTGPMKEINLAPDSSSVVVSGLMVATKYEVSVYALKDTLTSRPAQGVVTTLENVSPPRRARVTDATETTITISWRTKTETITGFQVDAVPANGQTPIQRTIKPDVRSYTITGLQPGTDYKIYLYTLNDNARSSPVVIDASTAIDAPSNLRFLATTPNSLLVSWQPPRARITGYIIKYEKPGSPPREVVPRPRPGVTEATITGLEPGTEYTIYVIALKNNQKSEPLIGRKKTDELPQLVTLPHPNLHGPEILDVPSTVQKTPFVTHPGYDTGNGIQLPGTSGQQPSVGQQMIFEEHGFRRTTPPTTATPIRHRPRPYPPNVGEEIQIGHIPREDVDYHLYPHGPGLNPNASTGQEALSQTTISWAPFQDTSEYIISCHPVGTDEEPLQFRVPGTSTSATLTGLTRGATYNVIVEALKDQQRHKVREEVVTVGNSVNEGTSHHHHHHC
Chain of FNIII12-14 (P02751 other isoform, or with tags, fused parts or gaps limits assumed): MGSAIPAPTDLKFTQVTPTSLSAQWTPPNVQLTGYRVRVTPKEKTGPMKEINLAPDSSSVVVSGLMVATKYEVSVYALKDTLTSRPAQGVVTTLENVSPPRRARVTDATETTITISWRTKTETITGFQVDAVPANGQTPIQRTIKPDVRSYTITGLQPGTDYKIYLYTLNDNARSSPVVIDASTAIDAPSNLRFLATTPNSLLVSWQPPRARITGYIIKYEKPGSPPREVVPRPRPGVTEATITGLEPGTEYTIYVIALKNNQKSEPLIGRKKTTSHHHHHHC
Chain of FNIII12-15 (H), heparinII-binding domain of fibronectin (P02751 other isoform, or with tags, fused parts or gaps limits assumed): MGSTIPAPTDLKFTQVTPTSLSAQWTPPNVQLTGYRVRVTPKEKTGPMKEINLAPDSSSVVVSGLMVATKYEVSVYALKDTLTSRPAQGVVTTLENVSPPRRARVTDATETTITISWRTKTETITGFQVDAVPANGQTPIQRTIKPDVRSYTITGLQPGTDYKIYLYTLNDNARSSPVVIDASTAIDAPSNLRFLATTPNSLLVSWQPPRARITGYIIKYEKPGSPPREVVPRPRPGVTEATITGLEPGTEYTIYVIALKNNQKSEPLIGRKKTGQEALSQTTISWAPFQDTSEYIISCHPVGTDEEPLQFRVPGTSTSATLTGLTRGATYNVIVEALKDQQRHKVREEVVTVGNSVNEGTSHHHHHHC
Chain of FNIII1-7 (P02751 other isoform, or with tags, fused parts or gaps limits assumed): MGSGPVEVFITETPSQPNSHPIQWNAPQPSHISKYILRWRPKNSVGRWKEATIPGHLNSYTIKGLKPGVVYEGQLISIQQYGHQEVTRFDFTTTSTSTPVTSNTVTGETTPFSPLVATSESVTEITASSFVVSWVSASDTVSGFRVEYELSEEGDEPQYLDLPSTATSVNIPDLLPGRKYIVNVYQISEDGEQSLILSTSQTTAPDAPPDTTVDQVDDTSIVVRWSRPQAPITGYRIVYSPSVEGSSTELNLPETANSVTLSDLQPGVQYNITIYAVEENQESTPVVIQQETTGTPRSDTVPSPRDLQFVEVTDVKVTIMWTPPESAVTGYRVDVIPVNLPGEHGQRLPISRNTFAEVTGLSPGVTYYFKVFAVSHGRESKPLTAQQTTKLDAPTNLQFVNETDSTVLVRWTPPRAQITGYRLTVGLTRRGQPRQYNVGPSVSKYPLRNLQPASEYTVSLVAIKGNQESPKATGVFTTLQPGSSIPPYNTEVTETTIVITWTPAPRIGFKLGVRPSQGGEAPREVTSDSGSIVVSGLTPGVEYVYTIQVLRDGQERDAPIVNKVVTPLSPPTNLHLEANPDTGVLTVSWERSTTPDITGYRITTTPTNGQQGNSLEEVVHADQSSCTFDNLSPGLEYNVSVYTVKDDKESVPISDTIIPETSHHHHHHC
Chain of vascular endothelial growth factor A (VEGF-A) (human) (P15692 other isoform, or with tags, fused parts or gaps limits assumed): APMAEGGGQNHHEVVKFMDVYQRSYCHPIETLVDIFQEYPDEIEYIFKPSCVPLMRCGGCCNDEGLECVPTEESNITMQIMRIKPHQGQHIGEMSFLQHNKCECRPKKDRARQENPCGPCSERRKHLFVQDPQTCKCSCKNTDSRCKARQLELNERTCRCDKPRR
Chain of FNIII12-13 (P02751 other isoform, or with tags, fused parts or gaps limits assumed): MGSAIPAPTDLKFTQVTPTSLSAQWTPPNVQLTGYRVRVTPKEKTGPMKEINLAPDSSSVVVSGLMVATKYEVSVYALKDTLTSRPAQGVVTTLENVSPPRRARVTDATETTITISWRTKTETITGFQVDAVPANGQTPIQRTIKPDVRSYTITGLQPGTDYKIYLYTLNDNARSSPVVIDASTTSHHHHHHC

Kd [1]: 100 nM
Kd [2]: 100 nM
Kd [3]: 100 nM
Kd [4]: 74 nM
Kd [5]: 350 nM
Substance: IIICS, variably-spliced domain of fibronectin (from UniProt P02751 2083-2202)

Kd [4]: 7.6 nM
Kd [6]: 55 nM
Kd [7]: 7.6 nM
Kd [5]: 35 nM
Substance: FNIII12-14 (from UniProt P02751 1812-2082)

Kd [8]: 17 nM
Kd [9]: 97 nM
Kd [10]: 25 nM
Kd [11]: 0.6 nM
Kd [12]: 17 nM
Kd [13]: 2.5 nM
Kd [5]: 21 nM
Substance: FNIII12-V15 (HV), composite heparinII-binding and variably-spliced IIICS domains of fibronectin (from UniProt P02751 1812-2288)

Kd [14]: 49 nM
Kd [15]: 53 nM
Kd [16]: 49 nM
Kd [17]: 53 nM
Substance: intact human plasma fibronectin (FN) (from UniProt P02751 32-2477)

Kd [18]: 370 nM
Kd [4]: 6.2 nM
Kd [5]: 32 nM
Substance: FNIII1 (from UniProt P02751 610-702)

Kd [5]: 75 nM
Substance: FNIII12-13 (from UniProt P02751 1812-1992)

Kd [18]: 9.1 nM
Kd [5]: 37 nM
Substance: FNIII1-2 (from UniProt P02751 610-812)

Kd [4]: 16 nM
Kd [6]: 6.8 nM
Kd [7]: 16 nM
Kd [5]: 6.8 nM
Substance: FNIII12-15 (H), heparinII-binding domain of fibronectin (from UniProt P02751 1631-1987)

Kd [8]: 100 nM
Kd [9]: 17 nM
Kd [10]: 18 nM
Kd [5]: 75 nM
Substance: FNIII1-7 (from UniProt P02751 610-1266)
